B1: Azoarcus group I ribozyme (parent)
chain: GUGCCUUGCGCCGGGAAACCACGCAAGGGAUGGUGUCAAAUUCGGCGAAACCUAAGCGCCCGCCCGGGCGUAUGGCAACGCCGAGCCAAGCUUCGGCGCCUGCGCCGAUGAAGGUGUAGAGACUAGACGGCACCCACCUAAGGCAAACGCUAUGGUGAAGGCAUAGUCCAGGGAGUGGCGAAAGUCACACAAACCGG

Variants of: B1
Assay: reverse-splicing fitness (ratio to wild type); higher = more active; in vitro selection; Mg2+ level not given
Method in brief: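 An in vitro group I ribozyme library with randomized positions was T7-transcribed and gel-purified. In triplicate, 10 pmol RNA in EPPS pH 7.5 was reacted with 50 pmoles of a 30-nt RNA substrate for 1 h at 37 °C across several added MgCl2 levels (1–48 mM), then stopped with EDTA. Products were reverse transcribed from a substrate-complementary primer, PCR-amplified and sequenced (HiSeq 4000). Fitness is a variant's read proportion after selection over that before, normalised to wild type.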
With C82A A120G A145U C150U C169A the reverse-splicing fitness was 0.013.
Work on C82A A120G A145U C169G U176A yielded a reverse-splicing fitness of 0.0118.
With C82A A120G A145U C169G U176C the reverse-splicing fitness was 0.0144.
Work on C82A A120G A145U C169G U176G yielded a reverse-splicing fitness of 0.00322.
For C82A A120G A145G C150U C169G U176G, the reverse-splicing fitness was 0.0046.
C82A A120G A145G C150U C169G U176C gave a reverse-splicing fitness of 0.0199.
C82A A120G A145G C150U C169G U176A showed a reverse-splicing fitness of 0.0149.
With C82A A120U A145C C150A C169G U176A the reverse-splicing fitness was 0.00253.
In the case of C82A A120U A145C C150A C169G U176C, the reverse-splicing fitness is reported as 0.00352.
In the case of C82A A120U A145C C150A C169G U176G, the reverse-splicing fitness is reported as 0.00139.
C82A A120U A145G C150A C169A U176C showed a reverse-splicing fitness of 0.00397.
For C82A A120U A145G C150A C169A U176A, the reverse-splicing fitness was 0.0062.
Variant C82A A120U A145G C150A C169A U176G has a reverse-splicing fitness of 0.00236.
In the case of C82A A120U A145C C169G U176C, the reverse-splicing fitness is reported as 0.00235.
C82A A120U A145C C169G U176G gave a reverse-splicing fitness of 0.00139.
Variant C82A A120U A145C C169G U176A has a reverse-splicing fitness of 0.00227.
Variant C82A A120G A145C C150A C169G U176A has a reverse-splicing fitness of 0.0238.
For C82A A120G A145C C150A C169G U176C, the reverse-splicing fitness was 0.0138.
Work on C82A A120G A145C C150A C169G U176G yielded a reverse-splicing fitness of 0.00464.
C82A A120G A145C U176C gave a reverse-splicing fitness of 0.0111.
For C82A A120G A145C U176A, the reverse-splicing fitness was 0.011.
Variant C82A A120G A145C U176G has a reverse-splicing fitness of 0.00396.
C82A A120G showed a reverse-splicing fitness of 0.0258.
C82A A120U gave a reverse-splicing fitness of 0.154.
In the case of C82A A120G A145C C150A C169A U176A, the reverse-splicing fitness is reported as 0.0126.
Variant C82A A120G A145C C150A C169A U176G has a reverse-splicing fitness of 0.00399.
With C82A A120G A145C C150A C169A U176C the reverse-splicing fitness was 0.00527.
For C82A A120G A145U C169A, the reverse-splicing fitness was 0.0137.
With C82A A120G A145U C169G the reverse-splicing fitness was 0.0204.
C82A A120G A145U C169U gave a reverse-splicing fitness of 0.0145.
C82A A120C U176G showed a reverse-splicing fitness of 0.00961.
C82A A120C U176C gave a reverse-splicing fitness of 0.056.
With C82A A120C U176A the reverse-splicing fitness was 0.04.
C82A A120G A145G C150A C169A U176G showed a reverse-splicing fitness of 0.00558.
With C82A A120G A145G C150A C169A U176C the reverse-splicing fitness was 0.023.
C82A A120G A145G C150A C169A U176A showed a reverse-splicing fitness of 0.0183.
In the case of C82A A120G A145U C150G C169G U176G, the reverse-splicing fitness is reported as 0.00378.
C82A A120G A145U C150G C169G U176C gave a reverse-splicing fitness of 0.00552.
C82A A120G A145U C150G C169G U176A showed a reverse-splicing fitness of 0.0066.
For C82A A120G A145U C150U C169A U176C, the reverse-splicing fitness was 0.0113.
In the case of C82A A120G A145U C150U C169A U176G, the reverse-splicing fitness is reported as 0.00418.
C82A A120G A145U C150U C169A U176A showed a reverse-splicing fitness of 0.013.
In the case of C82A A120G A145C C169U U176A, the reverse-splicing fitness is reported as 0.0217.
In the case of C82A A120G A145C C169U U176C, the reverse-splicing fitness is reported as 0.0129.
C82A A120G A145C C169U U176G gave a reverse-splicing fitness of 0.00381.
Work on C82A A120G A145C C150A U176G yielded a reverse-splicing fitness of 0.00435.
Variant C82A A120G A145C C150A U176A has a reverse-splicing fitness of 0.00995.
Variant C82A A120G A145C C150A U176C has a reverse-splicing fitness of 0.00806.
In the case of C82A A120G A145U C150G U176C, the reverse-splicing fitness is reported as 0.00721.
C82A A120G A145U C150G U176A showed a reverse-splicing fitness of 0.00629.
Variant C82A A120G A145U C150G U176G has a reverse-splicing fitness of 0.00365.
In the case of C82A A120G C150U C169A U176C, the reverse-splicing fitness is reported as 0.0163.
Work on C82A A120G C150U C169A U176G yielded a reverse-splicing fitness of 0.00471.
Variant C82A A120G C150U C169A U176A has a reverse-splicing fitness of 0.0169.
C82A A120G A145U C150U U176G showed a reverse-splicing fitness of 0.00531.
With C82A A120G A145U C150U U176A the reverse-splicing fitness was 0.0108.
With C82A A120G A145U C150U U176C the reverse-splicing fitness was 0.0158.
For C82A A120G A145C C150A, the reverse-splicing fitness was 0.00678.
C82A A120G A145C C150G gave a reverse-splicing fitness of 0.0075.
For C82A A120G A145C C150U, the reverse-splicing fitness was 0.0107.
In the case of C82A A120G A145G C150U U176G, the reverse-splicing fitness is reported as 0.00667.
With C82A A120G A145G C150U U176A the reverse-splicing fitness was 0.0104.
Work on C82A A120G A145G C150U U176C yielded a reverse-splicing fitness of 0.0178.
Work on C82A A120G A145G C150A C169U U176A yielded a reverse-splicing fitness of 0.0211.
In the case of C82A A120G A145G C150A C169U U176C, the reverse-splicing fitness is reported as 0.0185.
In the case of C82A A120G A145G C150A C169U U176G, the reverse-splicing fitness is reported as 0.00592.
In the case of C82A A120G C150G U176G, the reverse-splicing fitness is reported as 0.00336.
C82A A120G C150G U176C gave a reverse-splicing fitness of 0.00829.
In the case of C82A A120G C150G U176A, the reverse-splicing fitness is reported as 0.00568.
In the case of C82A A120G A145U U176A, the reverse-splicing fitness is reported as 0.0131.
Variant C82A A120G A145U U176C has a reverse-splicing fitness of 0.0146.
Work on C82A A120G A145U U176G yielded a reverse-splicing fitness of 0.00426.
Variant C82A A120G A145U C150G C169A has a reverse-splicing fitness of 0.00891.
For C82A A120G A145U C150G C169G, the reverse-splicing fitness was 0.00902.
Work on C82A A120G A145U C150G C169U yielded a reverse-splicing fitness of 0.00862.
Work on C82A A120G A145C C169G U176A yielded a reverse-splicing fitness of 0.0259.
C82A A120G A145C C169G U176C showed a reverse-splicing fitness of 0.0162.
Variant C82A A120G A145C C169G U176G has a reverse-splicing fitness of 0.00403.
Work on C82A A120G A145C C150U U176A yielded a reverse-splicing fitness of 0.0106.
C82A A120G A145C C150U U176G gave a reverse-splicing fitness of 0.0042.
In the case of C82A A120G A145C C150U U176C, the reverse-splicing fitness is reported as 0.0102.
Work on C82A A120G A145G C150U C169U U176C yielded a reverse-splicing fitness of 0.0172.
For C82A A120G A145G C150U C169U U176A, the reverse-splicing fitness was 0.0182.
Variant C82A A120G A145G C150U C169U U176G has a reverse-splicing fitness of 0.00463.

Reference: the RNAGym collection of RNA variant scans (doi:10.1093/molbev/msab373)
